{
  "source": "paper PMC7250872",
  "about": "“Repression of the lysogenic PR promoter in bacteriophage TP901-1 through binding of a CI-MOR complex to a composite OM-OR operator” (Scientific Reports, 2020)",
  "key": {"[1]": {"target": "MOR (Modulator Of Repression) of bacteriophage TP901-1, wild type, untagged (bacteriophage TP901-1) (UniProt O48504)", "test": "cross-linking; 0.05% glutaraldehyde, room temperature, 0-60 min, 20 mM HEPES pH 7.5, 200 mM NaCl (100 mM salt by p-0027); CI about 20 uM, MOR 4 or 20 uM, alone or together; SDS PAGE, coomassie"}, "[2]": {"target": "the molecule itself", "test": "cross-linking; 0.05% glutaraldehyde, room temperature, 0-60 min, 20 mM HEPES pH 7.5, 200 mM NaCl (100 mM salt by p-0027); CI about 20 uM, MOR 4 or 20 uM, alone or together; SDS PAGE, coomassie"}, "[3]": {"target": "T1, CI-NTD89-His6 (CI N-terminal domain 1-80 plus linker 81-89) (bacteriophage TP901-1, UniProt O48503 1-89)", "T1 construct": "CI repressor, lactococcal bacteriophage TP901-1, N-terminal domain (1-80) and flexible linker (81-89); also called CI-NTD_(1-89); source: E. coli BL21 (pET30a(+)), purified (His-Trap, SEC)", "T1 sequence (looked up)": "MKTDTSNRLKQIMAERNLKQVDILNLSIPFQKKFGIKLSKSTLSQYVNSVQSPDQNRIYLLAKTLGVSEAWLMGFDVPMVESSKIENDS", "test": "SEC; Superdex 75 Prep Grad, 20 mM Tris, 100 mM NaCl, pH 7.4; CI-NTD89 and MOR mixed in about 4:1 molar ratio", "conditions": "both partners purified"}},
  "data": [
    {"molecule": "MOR (Modulator Of Repression) of bacteriophage TP901-1, wild type, untagged (from UniProt O48504 1-72) (natural protein)", "values": [
      {"measurement": "stoichiometry N", "setting": "[1]", "value": 2}
    ]},
    {"molecule": "CI repressor of bacteriophage TP901-1, wild type, untagged (natural protein, UniProt O48503 1-180, looked up, CI repressor, lactococcal bacteriophage TP901-1; also called native CI repressor; full length CI; source: E. coli AJ159 (cI in expression vector pUHE23-2), in cell extract; also purified (eluted from the DNA pellet with 1 M NaCl; pooled fractions from Superdex gel filtration)) MKTDTSNRLKQIMAERNLKQVDILNLSIPFQKKFGIKLSKSTLSQYVNSVQSPDQNRIYLLAKTLGVSEAWLMGFDVPMVESSKIENDSENIEETITVMKKLEEPRQKVVLDTAKIQLKEQDEQNKVKQIEDYRLSDEYLEEQISKASAYGGGQLNDNDKEFFKRLLKNTLKEKIDKGDL", "values": [
      {"measurement": "stoichiometry N", "setting": "[2]", "value": 2}
    ]},
    {"molecule": "MOR (1-72) released from GST-MOR by thrombin (natural protein, bacteriophage TP901-1, UniProt O48504 1-72, looked up, MOR (Modulator Of Repression), lactococcal bacteriophage TP901-1, residues 1-72; also called cleaved MOR; source: E. coli BL21 (pGEX4-2, GST-MOR), purified (GST-Trap, thrombin cleavage on the column, SEC)) MSYDYSSLLGKITEKCGTQYNFAIAMGLSERTVSLKLNDKVTWKDDEILKAVHVLELNPQDIPKYFFNAKVH", "values": [
      {"measurement": "stoichiometry N", "setting": "[3]", "value": 1}
    ]}
  ]
}
